“Also recorded” adds a separate entry of the source.
B1: F:1-97: recombinant N-terminal RNase 7 fragment, amino acids 1 to 97 (SEQ ID NO: 5), N-terminal His tag (protein, listed as Homo sapiens)
chain: KPKGMTSSQWFKIQHMQPSPQACNSAMKNINKHTKRCKDLNTFLHEPFSSVAATCQTPKIACKNGDKNCHQSHGPVSLTMCKLTSGKYPNCRYKEKR
modifications: N-terminal His tag
B2: RNase7: recombinant full-length human Ribonuclease 7, amino acids 1-128 (SEQ ID NO: 1), N-terminal His tag (protein, listed as Homo sapiens)
chain: KPKGMTSSQWFKIQHMQPSPQACNSAMKNINKHTKRCKDLNTFLHEPFSSVAATCQTPKIACKNGDKNCHQSHGPVSLTMCKLTSGKYPNCRYKEKRQNKSYVVACKPPQKKDSQQFHLVPVHLDRVL
modifications: N-terminal His tag

Columns and labels:
[1] = test system: Staphylococcus saprophyticus; assay: SYTOX Green bacterial cell death / membrane permeabilization assay; type: cell-based; details: 3 hours, FIG. 2, compared to full-length
Description: (§1) Assays of the permeabilization of bacterial membrane were performed with SYTOX green nucleic acid stain (Invitrogen™). The overnight cultures of bacteria were centrifuged at 5000 rpm for 5 min, the pellets were then washed with water and resuspended in water with an OD=0.5. 90 μl of each bacteria were then incubated with 10 μl of peptides with different concentrations for 3 hours at 37° C. in a 96-well plate. 100 μl of 2 μM SYTOX Green (Invitrogen™) were then added to each well and incubated in dark for 15 min. SYTOX green penetrates cells with compromised membranes not the membranes of live cells. The increase of fluorescence was measured using […] filters for excitation and emission wavelengths, respectively. Bacteria alone and bacteria treated with 70% ethanol were used as controls and the fluorescence from each was recorded as Fmin and Fmax. The percentage of cell death at each concentration for each fragment was calculated as below: death %=(F−Fmin)/(Finax−Fmin)*100%
(§2) To confirm the accuracy of our MIC/MBC data, cell death assays using SYTOX Green (Invitrogen), which selectivity labels nucleic acids of cells with compromised membranes of dead/dying cells were performed. Overnight cultures of bacteria were centrifuged at 5000 rpm for 5 minutes. Pellets were then washed with PBS (pH 7.4) and resuspended in PBS to an OD600 of 0.5 for Escherichia coli (UTI89) and OD600 of 0.8 for Staphylococcus saprophyticus. Per manufacturerer's instructions, 90 μl of each bacteria strain were incubated with 100 μl of 2 uM SYTOX Green for 15 minutes. Ten microliters of peptides at various concentrations were added for 3 hours at 37° C. in a 96-well plate. Compromised bacterial membranes of dead/dying cells will be labeled while lives cells are not labeled as noted by Invitrogen. Fluorescence was measured using 485 and 520-nm filters for excitation and emission wavelengths, respectively. Untreated bacteria were used as a 100% live control, and fluorescence was noted as Fmin. To elicit complete killing, bacteria were treated with 70% ethanol for 1 hour. This experimental group's fluorescence was noted as Fmax. The percentage of cell death at each concentration for each fragment was calculated as (Ffragment−Fmin)/(Fmax−Fmin)×100%.

Escherichia coli (UTI89) = assay: as above; type: cell-based; details: 3 hours, FIG. 1, compared to full-length
Description: as §1, §2

uropathogenic E. coli = assay: RNase7 antibacterial activity, MIC on strains isolated from positive urine cultures; type: cell-based, Escherichia coli; details: uropathogenic E. coli isolated from urine cultures (N=3)
From the text: (§3) Laboratory bacterial strains from the American Type Culture Collection (ATCC, Manassas, Va.) and strains isolated from positive urine cultures were obtained from the Microbiology Laboratory at Nationwide Children's Hospital.

human erythocytes = type: cell-based
Description: Hemolytic assay: To determine the hemolytic activity of RNase 7, washed human erythocytes are incubated for 1 hour at 37° C. with a serial two-fold dilution of recombinant RNase 7 and its fragments in pyrogen free saline. After incubation, centrifugation to remove intact erythrocytes and a 10-fold dilution of supernatant, the concentration of released hemoglobin is measured in a micotitre plate reader at 405 nm. (Biochem J. Feb. 15 2008; 410(1):113-122) The peptide concentration that results in 50% hemolysis of erythrocytes will be designated the HC50.

[2] = test system: Human primary bladder urothelial cells and renal medullary epithelial cells; assay: Cytotoxic assay; type: cell-based
Description: Cytotoxic assay: The urothelial cells that line the bladder and distal nephron epithelial cells are the primary areas of RNase7 protein expression in the kidney and urinary tract. Thus, the cytotoxicity of variant peptides on these epithelia is determined. Human primary bladder urothelial cells (Catalog #4320, ScienCell Research Laboratories, Carlsbad, Calif.) and renal medullary epithelial cells (Catalog # FC-0018, Lifeline Cell Technology, Frederick, Md.) are cultured according to the manufacture's instructions. Cytotoxicity is measured with the Live/Dead Viability/Cytotoxicity Kit for mammalian cells (Catalog number # L3224, Invitrogen/Molecular Probes, Eugene Oreg.) according to the manufacturer's fluorescence microplate protocol and expressed as the percentage of viable cells after treatment with serial two-fold dilutions of RNase 7 and its deletion fragments incubated for 1 hour at 37° C. The results of the cytotoxic assay are reported as the EC50 or the concentration that results in 50% cell death.

[3] = test system: E. Coli, P. aeruginosa and E. faecalis; assay: Atomic Force Microscopy of bacterial morphology; type: cell-based; details: twice the MIC, 1×10^9 cfu, FIG. 13
Description: (See FIG. 13) 1×10^9 cfu of E. Coli, P. aeruginosa and E. faecalis were incubated with twice the MIC of RNase 7. Ultra-pure water was used as a negative control. AFM imaging was performed with the Multimode AFM instrument (Veeco, Santa Barbara, Calif.) at Ohio State.

[4] = test system: ATCC non-uropathogenic strains; assay: RNase7 antibacterial activity, MIC on laboratory strains; type: cell-based; details: ATCC non-uropathogenic strains (N=3 distinct strains)
From the text: as §3

| Molecule | membrane permeabilization and death, S. saprophyticus (in words) [1] | membrane permeabilization and death, E. coli (in words) (Escherichia coli (UTI89)) | mean inhibitory concentration (MIC) (uropathogenic E. coli) | hemolytic properties (human erythocytes) | cytotoxic properties [2] | morphological effect on bacteria (AFM) [3] | mean inhibitory concentration (MIC) [4] |
| --- | --- | --- | --- | --- | --- | --- | --- |
| B1 | increased permeability; also recorded: improved activity compared to full-length; also recorded: increased membrane permeabilization and subsequent death against both strains | increased permeability; also recorded: improved activity compared to the full-length protein; also recorded: increased membrane permeabilization and subsequent death against both strains |  |  |  |  |  |
| B2 |  |  | 2.5 µM | no cytoxic or hemolytic properties | no cytoxic or hemolytic properties | direct bacteriocidal effects on multiple microbes | 1.3 µM |

— patent US20150072922A1, “RNASE 7 ANTIMICROBIAL PEPTIDES” (THE RESEARCH INSTITUTE AT NATIONWIDE CHILDREN'S HOSPITAL, priority 2012, published 2015)
